Biological target: T1, DREB2A full-length fused to a YFP fragment (BiFC construct in pBI221) (Arabidopsis thaliana, UniProt O82132 1-335)
T1 construct: domain: full-length; Transiently expressed in Arabidopsis protoplasts, MG132 added to stabilise DREB2A; not shown: N-terminal or C-terminal half of YFP
Experiment: BiFC (split YFP), transient expression in Arabidopsis protoplasts
Description: Transient expression analysis using protoplasts from Arabidopsis thaliana mesophyll cells was conducted in accordance with the method of Yoo et al. [Yoo et al., Nat. Protoc., Vol. 2, pp. 1565-1572 ([…])]. To offer a brief explanation, the gene was introduced into the protoplast; after standing for 14 hours, MG132, a proteasome inhibitor, was added to make a final concentration of 50 μM to stabilize the DREB2A in the plant. After standing for another 4 hours, the YFP fluorescence was examined.
Specifically, two plasmids containing DREB2A and Arabidopsis thaliana NF-YC10 were produced by amplifying full-length cDNA of DREB2A and full-length cDNA of Arabidopsis thaliana NF-YC10 by PCR and attaching each to either pBI221 [Qin et al., Plant Cell, Vol. 20, pp. 1693-1707 (2008)] which is an expression vector containing cDNA encoding the N terminal side or C terminal side of YFP, and a transient expression analysis study of both plasmids was conducted. Furthermore, one transferred from Feng Qin Ph.D. (Japan International Research Center for Agricultural Sciences, Japan) was used as the DREB2A full-length cDNA-ligated pBI221 plasmid. Full-length cDNA of Arabidopsis thaliana NF-YC10 was produced by amplification by PCR using the following primer pair and introduction at the XbaI/ClaI site of the above expression vector.

T1 sequence (O82132 whole entry, the tested form may be a part): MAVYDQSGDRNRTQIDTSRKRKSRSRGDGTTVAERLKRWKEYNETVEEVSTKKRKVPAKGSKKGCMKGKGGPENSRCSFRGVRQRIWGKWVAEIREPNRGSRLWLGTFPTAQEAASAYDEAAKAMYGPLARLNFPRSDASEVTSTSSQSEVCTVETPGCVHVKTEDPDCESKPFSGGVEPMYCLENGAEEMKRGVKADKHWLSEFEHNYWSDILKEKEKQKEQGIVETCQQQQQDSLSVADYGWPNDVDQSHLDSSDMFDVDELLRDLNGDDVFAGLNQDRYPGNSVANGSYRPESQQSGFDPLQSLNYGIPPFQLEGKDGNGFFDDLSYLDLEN

B1: Arabidopsis thaliana NF-YC10 full-length fused to a YFP fragment (BiFC construct in pBI221) (other)
chain: MVSSKKPKEKKARSDVVVNKASGRSKRSSGSRTKKTSNKVNIVKKKPEIYEISESSSSDSVEEAIRGDEAKKSNGVVSKRGNGKSVGIPTKTSKNREEDDGGAEDAKIKFPMNRIRRIMRSDNSAPQIMQDAVFLVNKATEMFIERFSEEAYDSSVKDKKKFIHYKHLSSVVSNDQRYEFLADSVPEKLKAEAALEEWERGMTDAG
notes: Transiently expressed in Arabidopsis thaliana mesophyll protoplasts; not shown: N-terminal or C-terminal half of YFP
- binding result: binds

From patent US20150128304A1 (UNIVERSITY OF TOKYO, published 2015)
